Tests used:
[1] = biological target: anm1_human PRMT1 (UniProt Q99873)
[2] = biological target: G3BP1 (UniProt Q13283)
Chain of UniProt Q13283 (Q13283 whole entry, looked up): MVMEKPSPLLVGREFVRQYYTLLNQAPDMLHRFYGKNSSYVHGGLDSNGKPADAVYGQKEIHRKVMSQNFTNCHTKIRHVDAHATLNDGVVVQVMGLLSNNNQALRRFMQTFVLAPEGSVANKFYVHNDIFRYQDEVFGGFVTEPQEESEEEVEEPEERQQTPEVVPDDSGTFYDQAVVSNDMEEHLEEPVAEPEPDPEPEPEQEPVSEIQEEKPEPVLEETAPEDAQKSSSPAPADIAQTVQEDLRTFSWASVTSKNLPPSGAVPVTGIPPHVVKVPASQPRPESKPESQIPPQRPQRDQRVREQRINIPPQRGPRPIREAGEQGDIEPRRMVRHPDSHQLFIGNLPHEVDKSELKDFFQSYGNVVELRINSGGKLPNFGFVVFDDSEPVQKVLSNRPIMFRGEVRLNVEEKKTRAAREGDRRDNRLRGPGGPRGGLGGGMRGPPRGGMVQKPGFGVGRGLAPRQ

Chain of UniProt Q99873 (Q99873 whole entry, looked up): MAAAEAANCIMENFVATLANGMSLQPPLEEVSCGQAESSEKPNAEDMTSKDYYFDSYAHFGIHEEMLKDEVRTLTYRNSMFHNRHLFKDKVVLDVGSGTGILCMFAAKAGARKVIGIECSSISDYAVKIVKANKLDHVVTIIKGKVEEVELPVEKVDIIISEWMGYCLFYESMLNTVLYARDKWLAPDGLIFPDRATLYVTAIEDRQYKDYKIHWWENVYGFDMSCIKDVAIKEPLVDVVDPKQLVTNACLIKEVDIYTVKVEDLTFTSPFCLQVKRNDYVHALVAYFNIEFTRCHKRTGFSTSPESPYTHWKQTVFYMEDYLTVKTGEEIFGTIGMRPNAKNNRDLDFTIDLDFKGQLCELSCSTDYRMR

Substance: Nucleoprotein (SARS-CoV-2) (from UniProt P0DTC9) R68K
- effect of a mutation on the interaction [1]: with no effect

Substance: Nucleoprotein (SARS-CoV-2) (from UniProt P0DTC9) R177K
- effect of a mutation on the interaction [2]: with no effect

Substance: Nucleoprotein (SARS-CoV-2) (from UniProt P0DTC9) R203K
- effect of a mutation on the interaction [1]: with no effect

— IntAct's records for PubMed 34029587
